In the supplement of paper PMC6755084:

B1: F1*; the commonest letter at each place (parent)
chain: GAGACCGCAACTGAAAAGTTGTTATCACTTGTCGTAAGACACTTTGGATGGGTTGAAGTTCTGCACGTAGAAGCAAAAGGC

Variants of: B1
Assay: fraction ligated after 30 min (ligated reads / total reads); higher = more ligase activity
Details: with F1*sub RNA substrate (template-directed ligation), 42 °C
Outline: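 Ribozyme variants were transcribed with T7 from PCR-amplified oligo-pool templates and gel-purified. Ligated and unligated bands, separated on gel, were reverse transcribed with barcoded primers and sequenced on a MiSeq, with core bases filtered at quality ≥20. Fraction ligated per variant was computed as ligated reads divided by total reads.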

Variant | fraction ligated
G31A T49C | 0.136
G31A T49G | 0.229
G31A T49A | 0.214
G31A A36C | 0.8
G31A A36T | 0.827
G31A A36G | 0.595
G31C A56C | 0.155
G31C A56T | 0.694
G31C A56G | 0.607
G31T T45A | 0.387
G31T T45C | 0.116
G31T T45G | 0.0586
G31C G38A | 0.811
G31C G38T | 0.819
G31C G38C | 0.778
T32A A37T | 0.82
T32A A37C | 0.849
T32A A37G | 0.838
G31C T32G | 0.78
G31C T32A | 0.803
G31C T32C | 0.796
G31T C40A | 0.827
G31T C40G | 0.83
G31T C40T | 0.829

Variant | fraction ligated
T32C C40G | 0.743
T32C C40T | 0.786
T32C C40A | 0.771
G31T A57G | 0.819
G31T A57C | 0.789
G31T A57T | 0.78
T32A T49C | 0.223
T32A T49G | 0.618
T32A T49A | 0.568
G31T G34A | 0.775
G31T G34T | 0.793
G31T G34C | 0.771
T32C G55T | 0.75
T32C G55C | 0.664
T32C G55A | 0.771
T32A G34A | 0.809
T32A G34C | 0.809
T32A G34T | 0.823
G31T A41T | 0.772
G31T A41G | 0.761
G31T A41C | 0.586
G31A A48G | 0.254
G31A A48C | 0.322
G31A A48T | 0.01

Variant | fraction ligated
T32C T43G | 0.729
T32C T43C | 0.782
T32C T43A | 0.779
T32A A41T | 0.825
T32A A41C | 0.8
T32A A41G | 0.808
T32A T45G | 0.0954
T32A T45A | 0.763
T32A T45C | 0.358
G31A | 0.812
G31T | 0.793
G31C | 0.79
G31C G50T | 0.108
G31C G50C | 0.0327
G31C G50A | 0.057
G31C A48T | 0.0135
G31C A48C | 0.242
G31C A48G | 0.389
G31C A36G | 0.682
G31C A36C | 0.357
G31C A36T | 0.79
G31C C40T | 0.791
G31C C40G | 0.796
G31C C40A | 0.793

Variant | fraction ligated
T32A A39C | 0.837
T32A A39G | 0.832
T32A A39T | 0.827
G31T G38C | 0.78
G31T G38T | 0.801
G31T G38A | 0.802
G31C A57T | 0.793
G31C A57C | 0.788
G31C A57G | 0.807
T32C C42A | 0.826
T32C C42G | 0.806
T32C C42T | 0.842
G31A G47C | 0.0647
G31A G47A | 0.54
G31A G47T | 0.0708
T32C T45G | 0.109
T32C T45C | 0.217
T32C T45A | 0.726
G31A T32A | 0.809
G31A T32G | 0.837
G31A T32C | 0.811
T32C A39T | 0.778
T32C A39G | 0.852
T32C A39C | 0.772

Variant | fraction ligated
T32A A56T | 0.82
T32A A56G | 0.808
T32A A56C | 0.574
T32C C33T | 0.849
T32C C33G | 0.797
T32C C33A | 0.863
G31T T32C | 0.816
G31T T32G | 0.826
G31T T32A | 0.835
T32A A57G | 0.859
T32A A57C | 0.821
T32A A57T | 0.821
G31T G46T | 0.769
G31T G46A | 0.79
G31T G46C | 0.681
G31A G38C | 0.798
G31A G38T | 0.798
G31A G38A | 0.796
G31C G46A | 0.797
G31C G46C | 0.732
G31C G46T | 0.784
G31C G55C | 0.14
G31C G55A | 0.809
G31C G55T | 0.794

Variant | fraction ligated
T30G T44C | 0.808
T30G T44G | 0.798
T32A A48T | 0.0494
T32A A48G | 0.749
T32A A48C | 0.727
T32C A37T | 0.78
T32C A37G | 0.815
T32C A37C | 0.79
G31A A37G | 0.827
G31A A37C | 0.813
G31A A37T | 0.826
G31T T35A | 0.797
G31T T35C | 0.782
G31T T35G | 0.803
G31C T35C | 0.769
G31C T35A | 0.796
G31C T35G | 0.8
T32A C33G | 0.823
T32A C33T | 0.847
T32A C33A | 0.811
T32C G38A | 0.794
T32C G38C | 0.777
T32C G38T | 0.768
T32A C42G | 0.861

Variant | fraction ligated
T32A C42A | 0.843
T32A C42T | 0.845
G31A G50A | 0.025
G31A G50T | 0.195
G31A G50C | 0.0295
G31C A39G | 0.777
G31C A39T | 0.778
G31C A39C | 0.779
T32C A56C | 0.727
T32C A56T | 0.766
T32C A56G | 0.738
G31C T49C | 0.0658
G31C T49G | 0.0675
G31C T49A | 0.0574
T32A A36G | 0.794
T32A A36C | 0.815
T32A A36T | 0.852
T32C A36T | 0.803
T32C A36G | 0.786
T32C A36C | 0.795
G31C C33T | 0.777
G31C C33A | 0.798
G31C C33G | 0.794
G31A G55C | 0.205

Variant | fraction ligated
G31A G55T | 0.767
G31A G55A | 0.823
T32C A57C | 0.76
T32C A57T | 0.775
T32C A57G | 0.781
T32A G50T | 0.454
T32A G50A | 0.232
T32A G50C | 0.0632
G31A T43C | 0.797
G31A T43G | 0.807
G31A T43A | 0.815
T32C G46T | 0.729
T32C G46C | 0.717
T32C G46A | 0.763
T32A T35C | 0.829
T32A T35A | 0.855
T32A T35G | 0.812
G31A A56T | 0.724
G31A A56G | 0.687
G31A A56C | 0.161
T32A G38A | 0.861
T32A G38C | 0.82
T32A G38T | 0.825
T32A G46C | 0.778

Variant | fraction ligated
T32A G46A | 0.81
T32A G46T | 0.787
G31T A39G | 0.754
G31T A39T | 0.792
G31T A39C | 0.769
G31A T44A | 0.818
G31A T44C | 0.801
G31A T44G | 0.819
T30G T49G | 0.808
T30G T49C | 0.526
T30G T49A | 0.739
T32A G47C | 0.102
T32A G47T | 0.104
T32A G47A | 0.597
G31A T35A | 0.823
G31A T35C | 0.813
G31A T35G | 0.763
T32C A41C | 0.755
T32C A41G | 0.709
T32C A41T | 0.776
G31A C33T | 0.829
G31A C33G | 0.824
G31A C33A | 0.833
G31T A37C | 0.78

Variant | fraction ligated
G31T A37G | 0.792
G31T A37T | 0.815
G31C G34C | 0.804
G31C G34T | 0.778
G31C G34A | 0.78
T32C G50T | 0.273
T32C G50C | 0.0903
T32C G50A | 0.216
T32C G34T | 0.759
T32C G34A | 0.796
T32C G34C | 0.772
G31T G55T | 0.759
G31T G55A | 0.813
G31T G55C | 0.176
G31T G50A | 0.0382
G31T G50C | 0.0159
G31T G50T | 0.103
T32A | 0.842
T32C | 0.803
G31A G46A | 0.845
G31A G46C | 0.524
G31A G46T | 0.777
G31A A39C | 0.78
G31A A39G | 0.795

Variant | fraction ligated
G31A A39T | 0.795
T32A C40A | 0.834
T32A C40G | 0.834
T32A C40T | 0.806
T32A T44C | 0.82
T32A T44G | 0.814
T32A T44A | 0.819
G31A A57T | 0.796
G31A A57C | 0.819
G31A A57G | 0.851
T32C T44G | 0.793
T32C T44A | 0.751
T32C T44C | 0.756
T32A T43A | 0.831
T32A T43G | 0.789
T32A T43C | 0.812
G31A C42A | 0.834
G31A C42T | 0.839
G31A C42G | 0.818
G31T C33A | 0.831
G31T C33G | 0.808
G31T C33T | 0.777
G31A A41C | 0.74
G31A A41G | 0.797

Variant | fraction ligated
G31A A41T | 0.81
G31T A56T | 0.755
G31T A56G | 0.679
G31T A56C | 0.221
G31T T44A | 0.768
G31T T44C | 0.782
G31T T44G | 0.764
G31C C42G | 0.79
G31C C42A | 0.82
G31C C42T | 0.786
G31A C40A | 0.839
G31A C40G | 0.85
G31A C40T | 0.831
T32C T35C | 0.829
T32C T35A | 0.811
T32C T35G | 0.808
G31A G34T | 0.796
G31A G34A | 0.804
G31A G34C | 0.769
G31C T45A | 0.492
G31C T45G | 0.0355
G31C T45C | 0.0406
T32A G55T | 0.826
T32A G55C | 0.562

Variant | fraction ligated
T32A G55A | 0.817
G31C A41T | 0.732
G31C A41G | 0.779
G31C A41C | 0.492
T30G T45C | 0.803
T30G T45G | 0.46
T30G T45A | 0.76
G31A T45A | 0.395
G31A T45G | 0.137
G31A T45C | 0.0954
G31T A36T | 0.785
G31T A36G | 0.798
G31T A36C | 0.769
T32C G47C | 0.0784
T32C G47T | 0.103
T32C G47A | 0.669
G31C A37G | 0.817
G31C A37C | 0.769
G31C A37T | 0.79
G31T G47A | 0.246
G31T G47T | 0.022
G31T G47C | 0.0376
G31T A48C | 0.292
G31T A48T | 0.0299

Variant | fraction ligated
G31T A48G | 0.49
G31T T49G | 0.19
G31T T49C | 0.0332
G31T T49A | 0.146
T32C A48T | 0.114
T32C A48C | 0.369
T32C A48G | 0.75
G31T C42T | 0.822
G31T C42A | 0.809
G31T C42G | 0.809
G31C T43G | 0.761
G31C T43C | 0.811
G31C T43A | 0.807
G31T T43C | 0.78
G31T T43A | 0.778
G31T T43G | 0.76
G31C T44G | 0.781
G31C T44A | 0.775
G31C T44C | 0.792
G31C G47T | 0.0589
G31C G47A | 0.489
G31C G47C | 0.0426
